Drawing on PMC9597577, “Mutant Ras and inflammation-driven skin tumorigenesis is suppressed via a JNK-iASPP-AP1 axis” (Cell Reports, 2022), this text covers binding result and Kd for two molecules.

The Kd is the constant that tells how readily two partners part at equilibrium.

The target in experiment [1] is T1, ASPP1 CTD (887–1090) (Homo sapiens (Human), UniProt Q96KQ4).
T1 chain: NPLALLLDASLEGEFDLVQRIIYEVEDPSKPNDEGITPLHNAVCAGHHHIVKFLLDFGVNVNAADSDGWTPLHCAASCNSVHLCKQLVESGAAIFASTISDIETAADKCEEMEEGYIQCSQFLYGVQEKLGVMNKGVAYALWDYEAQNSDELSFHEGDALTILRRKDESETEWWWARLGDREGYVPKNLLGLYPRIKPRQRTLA
Nature of the experiment: ITC. (In ITC the heat of successive injections is recorded.)

Experiment [2] addresses T2, ASPP1 CTD (887–1090) (Homo sapiens (Human), UniProt Q96KQ4).
T2 chain: T1 chain
Nature of the experiment: ITC.

For experiment [3], the target named is T3, iASPP CTD (625–828) (UniProt Q8WUF5 625-828).
T3 chain: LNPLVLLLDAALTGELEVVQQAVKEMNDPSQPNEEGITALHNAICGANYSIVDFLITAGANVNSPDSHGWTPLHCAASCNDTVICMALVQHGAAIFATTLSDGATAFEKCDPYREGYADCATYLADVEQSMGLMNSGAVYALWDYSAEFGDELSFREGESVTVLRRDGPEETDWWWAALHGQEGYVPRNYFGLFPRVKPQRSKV
Nature of the experiment: ITC.

Experiment [4] deals with T4, Halo-tagged iASPP CTD (625–828) (UniProt Q8WUF5 625-828).
T4 construct: iASPP C-terminal domain (CTD) with the SH3 domain, residues 625-828; also called iASPP CTD fused to Halo-Tag; not shown: HaloTag, N-terminal, kept
T4 sequence (looked up): T3 chain
In words: pull-down; displacement pull-down: 25 μM JunD or PP1 peptide added to Halo-iASPP CTD on magnetic Halo beads, read by loss of in vitro translated Myc-tagged protein. The following applies: both partners purified.

As to WLKPAAAPPPTPLRADGAPSA [JunD peptide (WLKPAAAPPPTPLRADGAPSA)], the binding result in experiment [1] and in experiment [2] was “no binding” throughout. This molecule yielded a Kd in experiment [3] of 4.58 µM.

B1: PP1alpha peptide (WNPGGRPITPPRNSA) (peptide)
peptide: WNPGGRPITPPRNSA
notes: leading tryptophan; PxxP-containing peptide derived from the phosphatase PP1 (PP1alpha), C-terminal tail; also called PP1 peptide; source: synthetic peptide (TUCF, custom made)
B1: the binding result in experiment [4] is reported as “binds”.
